What was measured:
thrombin, BODIPY-labeled [1] = target: T1, thrombin, BODIPY-labeled (human, UniProt P00734;P00734 328-363;364-622); test: single-particle fluorescence microscopy of aptamer-coated microspheres
thrombin, BODIPY-labeled [2] = target: T1, thrombin, BODIPY-labeled; test: single-particle fluorescence microscopy of coated microspheres

Binder | binding result (thrombin, BODIPY-labeled [1]) | binding result (thrombin, BODIPY-labeled [2])
TTCACTGTGGTTGGTGTGGTTGG (structured_DNA, 5'-NH2) [ssTBA] | binds | –
CCAACCACAGTGTT (ssDNA, 3'-NH2) [NH2-com] | – | no binding

From PMC9080894
